Data from publication PMC10702835, “Recognition of centromere‐specific histone Cse4 by the inner kinetochore Okp1‐Ame1 complex” (EMBO Reports, 2023).
Where no end group is shown, it is not given here.

Legend:
[1] = test system: Okp1‐Ame1; assay: GST pulldown, Okp1-Ame1; assay type: binding, Saccharomyces cerevisiae; conditions: glutathione agarose, 4°C, 1 h, 20 mM Tris, pH 8.5, 200 mM NaCl, 1 mM TCEP; SDS-PAGE
Method: (§1) Figure 3 Biochemical investigation of Okp1‐Ame1‐Cse4^END binding and disruptive point mutations • A GST pulldown assay for Cse4 binding. The indicated COMA complex proteins were tested for their association with immobilized GST‐Cse4^END. • B Fluorescence polarization assay for quantification of Cse4 binding affinities (n = 3 independent replicates). FITC‐labeled Cse4^END peptide was incubated with increasing concentrations of the indicated protein complexes. See also Table 1. • C, D GST pulldown assays as in panel A. Cse4^END and its mutants (L41D, L42D, or L41,42A) were tested in panel C. The indicated Okp1‐Ame1 complexes were tested for their association with GST‐Cse4^END in panel D. Source data are available online for this figure.
(§2) GST‐Cse4^28‐60 was mixed with Okp1‐Ame1, COMA, COMA‐Nkp1‐Nkp2, or Okp1^125‐275 – Ame1^124‐231 and the mixed samples were incubated with glutathione agarose resin at 4°C for 1 h in binding buffer containing 20 mM Tris, pH 8.5, 200 mM NaCl and 1 mM TCEP. Resin was washed at least three times with the same buffer to remove unbound protein, and bound protein then eluted with glutathione. Samples of input and eluate were collected for analysis by SDS–PAGE.

[2] = test system: COMA‐Nkp1‐Nkp2 complex; assay: GST pulldown, COMA-Nkp1-Nkp2; assay type: binding, Saccharomyces cerevisiae; conditions: glutathione agarose, 4°C, 1 h, 20 mM Tris, pH 8.5, 200 mM NaCl, 1 mM TCEP; compared with COMA
Method: as §1, §2

[3] = test system: minimal Okp1‐Ame1 complex (Okp1^125‐275‐Ame1^124‐231); assay: GST pulldown, minimal Okp1-Ame1; assay type: binding, Saccharomyces cerevisiae; conditions: glutathione agarose, 4°C, 1 h, 20 mM Tris, pH 8.5, 200 mM NaCl, 1 mM TCEP
Method: Figure EV3 Further biochemical characterization of the Okp1‐Ame1‐Cse4^END interaction • Pulldown assay showing binding between the truncated Okp1‐Ame1 complex used for crystallography (Okp1^125‐275l‐Ame1^124‐231) and GST‐Cse4^END. • Recombinant proteins used for pulldowns in Fig 3 were tested for their association with GST to determine the level of non‐specific binding. Results of a GST pulldown assay are shown. • The minimal Okp1‐Ame1 complex used for crystallography was tested for its association with FITC‐Cse4^END in a fluorescence polarization experiment. The measured dissociation constant is ~750 nM (see Materials and Methods; n = 3 independent experiments). • GST‐Cse4^END and its mutants were tested for Okp1‐Ame1 binding. • Full‐length mutant Okp1‐Ame1 complex (EYAA or I195Y as indicated) was tested for its association with FITC‐Cse4^END. • Various Okp1‐Ame1 mutants (indicated above) were tested for binding to GST‐Cse4^END. • Various Okp1‐Ame1 mutants were tested for Cse4^END binding as in panel F. Source data are available online for this figure.
GST‐Cse4^28‐60 was mixed with Okp1‐Ame1, COMA, COMA‐Nkp1‐Nkp2, or Okp1^125‐275 – Ame1^124‐231 and the mixed samples were incubated with glutathione agarose resin at 4°C for 1 h in binding buffer containing 20 mM Tris, pH 8.5, 200 mM NaCl and 1 mM TCEP. […]

[4] = test system: COMA complex; assay: GST pulldown, COMA; assay type: binding, Saccharomyces cerevisiae; conditions: glutathione agarose, 4°C, 1 h, 20 mM Tris, pH 8.5, 200 mM NaCl, 1 mM TCEP; compared with COMA-Nkp1-Nkp2
Method: as §1, §2

[5] = target: T1, Okp1‐Ame1 heterodimer, full length, wild type (S. cerevisiae (budding yeast), UniProt P53298 1-406; P38313 1-324); assay: fluorescence polarisation; 20 nM FITC‐Cse4^28‐60, full-length Okp1‐Ame1 titrated; 100 mM HEPES pH 7.5, 200 mM NaCl, 1 mM TCEP; 30 min at room temperature; one site – total binding fit; triplicate; conditions: both partners purified
T1 construct: Okp1, inner kinetochore (Ctf19c) protein of budding yeast, full length; Ame1, inner kinetochore (Ctf19c) protein of budding yeast, full length; also called Okp1‐Ame1 (WT); FL; copies: 1 + 1
T1 sequence (P53298 whole entry, chain 1 of 2): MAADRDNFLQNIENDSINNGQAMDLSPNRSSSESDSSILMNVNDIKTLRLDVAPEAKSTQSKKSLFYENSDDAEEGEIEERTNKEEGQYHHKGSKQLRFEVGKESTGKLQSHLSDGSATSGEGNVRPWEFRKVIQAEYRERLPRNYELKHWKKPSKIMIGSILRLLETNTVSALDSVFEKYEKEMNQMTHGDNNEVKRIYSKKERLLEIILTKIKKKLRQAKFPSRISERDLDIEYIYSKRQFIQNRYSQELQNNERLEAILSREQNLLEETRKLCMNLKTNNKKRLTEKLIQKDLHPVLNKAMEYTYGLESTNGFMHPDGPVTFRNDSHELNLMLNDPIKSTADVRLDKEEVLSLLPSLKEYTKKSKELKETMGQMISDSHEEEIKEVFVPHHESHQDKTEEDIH
T1 sequence (P38313 whole entry, chain 2 of 2): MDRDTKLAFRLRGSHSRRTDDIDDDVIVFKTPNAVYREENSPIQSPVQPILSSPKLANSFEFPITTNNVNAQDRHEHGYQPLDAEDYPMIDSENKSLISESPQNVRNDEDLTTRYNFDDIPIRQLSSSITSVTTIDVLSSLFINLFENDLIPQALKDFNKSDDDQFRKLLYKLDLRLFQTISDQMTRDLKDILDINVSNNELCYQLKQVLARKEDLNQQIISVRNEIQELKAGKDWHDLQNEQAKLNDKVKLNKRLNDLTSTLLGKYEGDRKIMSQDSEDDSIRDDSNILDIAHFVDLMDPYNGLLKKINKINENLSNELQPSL

[6] = target: T2, Okp1(EYAA)‐Ame1, full length (S. cerevisiae (budding yeast), UniProt P53298 1-406; P38313 1-324, E235A | Y238A); assay: as above; conditions: both partners purified
T2 construct: Okp1, budding yeast, full length, with E235A and Y238A; Ame1, budding yeast, full length; also called okp1‐E235,Y238A; okp1‐E235A,Y238A; source: recombinant; copies: 1 + 1
T2 sequence (P53298 whole entry E235A/Y238A, chain 1 of 2): as the sequence (P53298 whole entry, chain 1 of 2) above, with E235A, Y238A counted along it
T2 sequence (P38313 whole entry, chain 2 of 2): as the sequence (P38313 whole entry, chain 2 of 2) above

[7] = target: T3, Okp1‐Ame1(I195Y), full length (S. cerevisiae (budding yeast), UniProt P53298 1-406; P38313 1-324, I195Y); assay: as above; conditions: both partners purified
T3 construct: Okp1, budding yeast, full length; Ame1, budding yeast, full length, with I195Y; source: recombinant; copies: 1 + 1
T3 sequence (P53298 whole entry, chain 1 of 2): as the sequence (P53298 whole entry, chain 1 of 2) above
T3 sequence (P38313 whole entry I195Y, chain 2 of 2): as the sequence (P38313 whole entry, chain 2 of 2) above, with I195Y counted along it

[8] = target: T4, minimal Okp1^125‐275 – Ame1^124‐231 heterodimer (S. cerevisiae (budding yeast), UniProt P53298 125-275; P38313 124-231); assay: fluorescence polarisation; 20 nM FITC‐Cse4^28‐60, truncated Okp1‐Ame1 titrated; 100 mM HEPES pH 7.5, 600 mM NaCl, 1 mM TCEP; 30 min at room temperature; 20 μM points left out of the fit; conditions: both partners purified
T4 construct: Okp1, budding yeast, residues 125-275; Ame1, budding yeast, residues 124-231; no tag; also called truncated Okp1‐Ame1 complex; minimal Okp1‐Ame1 complex used for crystallography; source: E. coli Rosetta 2 (pLysS), pet-Duet co-expression, purified (TALON, TEV cleavage, ion exchange, gel filtration); not shown: His6, N-terminal, cleaved; copies: 1 + 1
T4 sequence (P53298 125-275, chain 1 of 2): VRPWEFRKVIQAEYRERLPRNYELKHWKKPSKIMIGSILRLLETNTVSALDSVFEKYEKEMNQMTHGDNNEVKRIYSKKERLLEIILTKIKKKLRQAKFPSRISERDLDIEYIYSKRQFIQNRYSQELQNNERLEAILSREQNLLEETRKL
T4 sequence (P38313 124-231, chain 2 of 2): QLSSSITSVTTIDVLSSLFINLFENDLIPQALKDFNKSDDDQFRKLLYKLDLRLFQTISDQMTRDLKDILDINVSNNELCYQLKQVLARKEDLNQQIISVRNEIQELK

[9] = target: T5, Okp1‐Ame1 (WT, full length) with 10 μM Nkp1‐Nkp2 (S. cerevisiae (budding yeast), UniProt P53298 1-406; P38313 1-324; Q12493 1-238; Q06162 1-153); assay: fluorescence polarisation; as a2 (20 nM FITC‐Cse4^28‐60, full-length Okp1‐Ame1 titrated, 200 mM NaCl) with 10 μM Nkp1‐Nkp2 added in excess; conditions: both partners purified
T5 construct: Okp1, budding yeast, full length; Ame1, budding yeast, full length; Nkp1, budding yeast, full length; Nkp2, budding yeast, full length; the methods call it a titrated complex (Okp1‐Ame1 with Nkp1/2); also called Okp1‐Ame1 W(T) + 10 μM Nkp1‐Nkp2; Okp1‐Ame1 with Nkp1/2; source: E. coli, purified heterodimers Okp1‐Ame1 and Nkp1‐Nkp2, mixed; copies: + + +
T5 sequence (P53298 whole entry, chain 1 of 4): as the sequence (P53298 whole entry, chain 1 of 2) above
T5 sequence (P38313 whole entry, chain 2 of 4): as the sequence (P38313 whole entry, chain 2 of 2) above
T5 sequence (Q12493 whole entry, chain 3 of 4): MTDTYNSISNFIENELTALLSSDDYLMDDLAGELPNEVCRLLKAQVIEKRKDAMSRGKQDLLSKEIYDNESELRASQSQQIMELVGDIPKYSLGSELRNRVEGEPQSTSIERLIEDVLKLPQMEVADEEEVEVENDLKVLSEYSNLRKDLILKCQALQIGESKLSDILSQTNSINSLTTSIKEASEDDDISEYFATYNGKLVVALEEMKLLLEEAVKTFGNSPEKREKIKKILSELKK
T5 sequence (Q06162 whole entry, chain 4 of 4): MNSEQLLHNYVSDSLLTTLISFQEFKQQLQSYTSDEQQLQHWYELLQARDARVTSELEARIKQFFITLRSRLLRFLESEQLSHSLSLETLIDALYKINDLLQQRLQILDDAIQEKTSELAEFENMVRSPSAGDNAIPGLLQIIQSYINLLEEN

[10] = target: T6, Ame1^124‐231 (S. cerevisiae (budding yeast), UniProt P38313 124-231); assay: crystal structure; Okp1^125‐275 – Ame1^124‐231 mixed with Cse4^28‐60 peptide 1:1.3; hanging drop, 18°C, 19% PEG 8000, 0.55 M lithium sulfate; 1.8 Å, space group P4(2)2(1)2; conditions: both partners purified
T6 construct: Ame1, budding yeast, residues 124-231; no tag; Single chain of m2, written for the pairwise contacts of the crystal structure; also called Ame1 (chain of the crystallised minimal heterodimer); source: E. coli Rosetta 2 (pLysS), co-expressed with Okp1^125‐275, purified
T6 sequence (P38313 124-231): as the sequence (P38313 124-231, chain 2 of 2) above

[11] = target: T7, Okp1^125‐275 (S. cerevisiae (budding yeast), UniProt P53298 125-275); assay: as above; conditions: both partners purified
T7 construct: Okp1, budding yeast, residues 125-275; Single chain of m2, written for the pairwise contacts of the crystal structure; also called Okp1 (chain of the crystallised minimal heterodimer); source: E. coli Rosetta 2 (pLysS), co-expressed with Ame1^124‐231, purified; not shown: His6, N-terminal, cleaved
T7 sequence (P53298 125-275): as the sequence (P53298 125-275, chain 1 of 2) above

[12] = target: T4, minimal Okp1^125‐275 – Ame1^124‐231 …; assay: as above; conditions: both partners purified
[13] = target: T1, Okp1‐Ame1 heterodimer, full length, …; assay: pull-down; GST‐Cse4^28‐60 (or GST) mixed with prey, held on glutathione agarose resin, 4°C 1 h, 20 mM Tris pH 8.5, 200 mM NaCl, 1 mM TCEP; eluted with glutathione; SDS–PAGE; conditions: both partners purified
[14] = target: T8, six‐protein COMA‐Nkp1‐Nkp2 complex (S. cerevisiae (budding yeast), UniProt P53298 1-406; P38313 1-324; Q02732 1-369; Q06675 1-368; Q12493 1-238; Q06162 …); assay: as above; conditions: both partners purified
T8 construct: Okp1, budding yeast, full length; Ame1, budding yeast, full length; Ctf19, budding yeast, full length; Mcm21, budding yeast, full length; Nkp1, budding yeast, full length; Nkp2, budding yeast, full length; constructs as in Hinshaw & Harrison 2019; source: E. coli, purified heterodimers Okp1‐Ame1, Ctf19‐Mcm21 and Nkp1‐Nkp2; copies: + + + + +

[15] = target: T9, four‐protein COMA complex (Ctf19‐Okp1‐Mcm21‐Ame1) (S. cerevisiae (budding yeast), UniProt P53298 1-406; P38313 1-324; Q02732 1-369; Q06675 1-368); assay: as above; conditions: both partners purified
T9 construct: Okp1, budding yeast, full length; Ame1, budding yeast, full length; Ctf19, budding yeast, full length; Mcm21, budding yeast, full length; constructs as in Hinshaw & Harrison 2019; source: E. coli, purified heterodimers Okp1‐Ame1 and Ctf19‐Mcm21; copies: + + +
T9 sequence (P53298 whole entry, chain 1 of 4): as the sequence (P53298 whole entry, chain 1 of 2) above
T9 sequence (P38313 whole entry, chain 2 of 4): as the sequence (P38313 whole entry, chain 2 of 2) above
T9 sequence (Q02732 whole entry, chain 3 of 4): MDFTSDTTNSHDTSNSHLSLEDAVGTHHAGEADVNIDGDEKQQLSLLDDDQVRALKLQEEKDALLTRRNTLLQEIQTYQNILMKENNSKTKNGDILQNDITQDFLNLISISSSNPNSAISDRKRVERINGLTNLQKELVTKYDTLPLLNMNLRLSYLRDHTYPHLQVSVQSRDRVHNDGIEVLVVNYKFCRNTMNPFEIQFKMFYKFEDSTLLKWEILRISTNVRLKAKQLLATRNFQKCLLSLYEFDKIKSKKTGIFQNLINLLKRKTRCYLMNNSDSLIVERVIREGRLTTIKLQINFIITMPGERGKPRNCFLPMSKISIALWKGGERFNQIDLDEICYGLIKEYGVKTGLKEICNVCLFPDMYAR
T9 sequence (Q06675 whole entry, chain 4 of 4): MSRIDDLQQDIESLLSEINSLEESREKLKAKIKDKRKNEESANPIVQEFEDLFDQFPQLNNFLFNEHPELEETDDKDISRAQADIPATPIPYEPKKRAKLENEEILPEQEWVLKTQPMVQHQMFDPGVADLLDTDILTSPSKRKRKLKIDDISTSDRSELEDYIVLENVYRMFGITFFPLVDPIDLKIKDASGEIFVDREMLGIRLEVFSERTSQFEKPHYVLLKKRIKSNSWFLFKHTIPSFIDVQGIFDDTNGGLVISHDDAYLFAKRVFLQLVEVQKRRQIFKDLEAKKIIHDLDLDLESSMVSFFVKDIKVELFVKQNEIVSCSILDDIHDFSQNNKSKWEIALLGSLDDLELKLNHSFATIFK

[16] = target: T4, minimal Okp1^125‐275 – Ame1^124‐231 …; assay: as above; conditions: both partners purified

cse4‐L41D: Cse4^END L41D mutant, GST fusion (GST-TEV-Cse4^28-60(L41D)) (AGDQQSINDRALSDLQRTRATKNLFPRREERRR; not fully specified (N-terminus))
binding in GST pulldown [1]: failed to bind

cse4‐L42D: Cse4^END L42D mutant, GST fusion (GST-TEV-Cse4^28-60(L42D)) (AGDQQSINDRALSLDQRTRATKNLFPRREERRR; not fully specified (N-terminus))
binding in GST pulldown [1]: failed to bind

cse4‐L41,42A: Cse4^END L41,42A mutant, GST fusion (AGDQQSINDRALSAAQRTRATKNLFPRREERRR; not fully specified (N-terminus))
binding in GST pulldown [1]: failed to bind

GST‐Cse4^END: Cse4 residues 28–60 with TEV‐cleavable N‐terminal Glutathione S‐transferase tag (AGDQQSINDRALSLLQRTRATKNLFPRREERRR; not fully specified (N-terminus))
binding in GST pulldown [2]: equally well
binding in GST pulldown [1]: bound Okp1‐Ame1
binding in GST pulldown [3]: preserved GST‐Cse4^END binding
binding in GST pulldown [4]: equally well

B1: FITC‐Cse4^28‐60 peptide (peptide, UniProt P36012 28-60, looked up)
peptide: AGDQQSINDRALSLLQRTRATKNLFPRREERRR
modifications: not fully specified (N-terminus); also: FITC label, position not given here
notes: Cse4, S. cerevisiae, residues 28-60; also called FITC‐Cse4^END; FITC‐labeled Cse4^END peptide; source: synthetic peptide (Tufts University Core Facility)
Kd [5]: 152 nM
Kd [6]: > 3000 nM
Kd [7]: > 3000 nM
Kd [8]: ~750 nM
Kd [9]: 133 nM

B2: Cse4^28‐60 peptide (Cse4^END peptide) (peptide, UniProt P36012 28-60, looked up)
peptide: B1 peptide
notes: Cse4, S. cerevisiae, residues 28-60 (residues 34-46 ordered in the crystal); also called minimal Cse4^END peptide; source: synthetic peptide (Tufts University Core facility)
binding result [10]: binds
binding result [11]: binds
binding result [12]: binds

B3: GST‐Cse4^END (GST fusion of Cse4 residues 28–60) (domain or fragment, S. cerevisiae, UniProt P36012 28-60, looked up)
chain: B1 peptide
notes: Cse4, centromeric histone H3 variant of S. cerevisiae, Essential N-terminal Domain, residues 28-60; The GST tag is TEV-cleavable (pLIC vector) but was kept for the pull-downs; also called GST‐Cse4^28‐60; source: E. coli Rosetta 2 (pLysS), purified (glutathione agarose); not shown: GST, N-terminal, kept
binding result [13]: binds
binding result [14]: binds
binding result [15]: binds
binding result [16]: binds
